Results: PMC9482650, “Quantitative fragmentomics allow affinity mapping of interactomes” (Nature Communications, 2022)
Changes are numbered by the printed parent chain.

T1: GRIP1_4, Q9Y3R0
T1 sequence (Q9Y3R0 467-571, limits assumed, looked up): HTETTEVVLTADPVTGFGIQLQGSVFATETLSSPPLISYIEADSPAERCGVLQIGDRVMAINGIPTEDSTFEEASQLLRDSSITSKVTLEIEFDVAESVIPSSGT

T2: SNTB1, Q13884
T2 sequence (Q13884 107-205, limits assumed, looked up): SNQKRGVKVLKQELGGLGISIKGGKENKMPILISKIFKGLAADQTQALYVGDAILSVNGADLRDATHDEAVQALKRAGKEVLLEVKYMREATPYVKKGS

T3: SNTG1, Q9NSN8
T3 sequence (Q9NSN8 52-150, limits assumed, looked up): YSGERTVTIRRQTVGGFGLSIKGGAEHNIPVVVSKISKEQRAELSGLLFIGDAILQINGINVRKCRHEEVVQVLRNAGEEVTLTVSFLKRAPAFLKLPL

T4: MPDZ_5, O75970
T4 sequence (O75970 695-796, limits assumed, looked up): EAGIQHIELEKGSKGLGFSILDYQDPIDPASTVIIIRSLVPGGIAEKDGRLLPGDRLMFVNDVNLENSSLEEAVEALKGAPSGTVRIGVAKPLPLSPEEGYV

T5: LIN7C, Q9NUP9
T5 sequence (Q9NUP9 88-185, limits assumed, looked up): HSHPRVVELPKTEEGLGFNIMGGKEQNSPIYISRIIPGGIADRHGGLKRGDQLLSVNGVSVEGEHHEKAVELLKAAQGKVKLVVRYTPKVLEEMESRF

T6: SYNJ2BP, P57105
T6 sequence (P57105 8-110, limits assumed, looked up): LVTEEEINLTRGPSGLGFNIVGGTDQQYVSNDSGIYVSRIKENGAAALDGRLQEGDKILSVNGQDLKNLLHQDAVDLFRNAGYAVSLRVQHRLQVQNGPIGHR

T7: RAPGEF6, Q8TEU7
T7 sequence (Q8TEU7 525-625, limits assumed, looked up): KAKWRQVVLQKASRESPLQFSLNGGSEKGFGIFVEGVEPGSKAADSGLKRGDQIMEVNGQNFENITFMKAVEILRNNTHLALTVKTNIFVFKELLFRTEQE

T8: PTPN13_1, Q12923
T8 sequence (Q12923 1088-1188, limits assumed, looked up): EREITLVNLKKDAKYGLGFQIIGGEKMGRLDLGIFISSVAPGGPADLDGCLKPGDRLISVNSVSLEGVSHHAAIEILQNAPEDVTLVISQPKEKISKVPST

T9: NHERF3_3, Q5T2W1
T9 sequence (Q5T2W1 238-333, limits assumed, looked up): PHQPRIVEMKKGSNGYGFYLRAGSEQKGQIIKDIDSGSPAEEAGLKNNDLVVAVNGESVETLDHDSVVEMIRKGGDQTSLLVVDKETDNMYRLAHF

T10: DFNB31_3, Q9P202
T10 sequence (Q9P202 811-907, limits assumed, looked up): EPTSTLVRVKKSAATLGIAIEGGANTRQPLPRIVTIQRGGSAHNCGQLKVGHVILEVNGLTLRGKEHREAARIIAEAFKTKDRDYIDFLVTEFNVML

T11: LIN7A, O14910
T11 sequence (O14910 103-200, limits assumed, looked up): T5 sequence (Q9NUP9 88-185, limits assumed, looked up) with E13D, I20V, I40V, D42E, Q77K, G78D, K79S, S96A

T12: GRIP1_7, Q9Y3R0
T12 sequence (Q9Y3R0 999-1096, limits assumed, looked up): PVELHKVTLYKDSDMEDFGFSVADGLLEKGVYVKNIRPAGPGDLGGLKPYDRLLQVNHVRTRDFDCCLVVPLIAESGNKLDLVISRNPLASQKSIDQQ

T13: PDZD2_2, O15018
T13 sequence (O15018 329-429, limits assumed, looked up): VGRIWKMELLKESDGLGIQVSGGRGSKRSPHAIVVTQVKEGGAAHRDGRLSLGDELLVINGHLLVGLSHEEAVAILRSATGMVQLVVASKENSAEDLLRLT


What follows are binders tested against T1, GRIP1_4, Q9Y3R0 (assay: holdup assay). Settings: plain residues with an end cap or a label only (N-terminal biotin on a linker: ado-ado).
Parameters: key: below the threshold = too weak to quantify, mostly under pKd 3.1 to 4

Binder | pKd
SVISRREWYV [NECTIN3, Q9NQS3] | below the threshold
NRVDSKETEC [ADAM17, P78536] | below the threshold

What follows are binders tested against T2, SNTB1, Q13884 (assay: holdup assay). Settings: plain residues with an end cap or a label only (N-terminal biotin on a linker: ado-ado).
Parameters: key: below the threshold = too weak to quantify, mostly under pKd 3.1 to 4

Binder | pKd
SVISRREWYV [NECTIN3, Q9NQS3] | below the threshold
NRVDSKETEC [ADAM17, P78536] | 4.87

Each binder was assayed against T3, SNTG1, Q9NSN8 (assay: holdup assay). Settings: plain residues with an end cap or a label only (N-terminal biotin on a linker: ado-ado).
Parameters: key: below the threshold = too weak to quantify, mostly under pKd 3.1 to 4

Binder | pKd
SVISRREWYV [NECTIN3, Q9NQS3] | 3.79
NRVDSKETEC [ADAM17, P78536] | 3.63

These binders were tested against T4, MPDZ_5, O75970 (assay: holdup assay). Settings: plain residues with an end cap or a label only (N-terminal biotin on a linker: ado-ado).
Parameters: key: below the threshold = too weak to quantify, mostly under pKd 3.1 to 4

Binder | pKd
SVISRREWYV [NECTIN3, Q9NQS3] | 5.19
NRVDSKETEC [ADAM17, P78536] | below the threshold

The binders below were run against Inadl_5, Q8NI35 (assay: holdup assay). Settings: plain residues with an end cap or a label only (N-terminal biotin on a linker: ado-ado).
Chain of Inadl_5, Q8NI35 (Q8NI35 673-780): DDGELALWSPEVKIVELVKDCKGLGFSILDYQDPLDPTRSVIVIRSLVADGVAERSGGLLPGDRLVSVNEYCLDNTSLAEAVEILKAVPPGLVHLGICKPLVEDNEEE
Parameters: key: below the threshold = too weak to quantify, mostly under pKd 3.1 to 4

Binder | pKd
SVISRREWYV [NECTIN3, Q9NQS3] | 5.43
NRVDSKETEC [ADAM17, P78536] | below the threshold

These binders were tested against T5, LIN7C, Q9NUP9 (assay: holdup assay). Settings: plain residues with an end cap or a label only (N-terminal biotin on a linker: ado-ado).
Parameters: key: below the threshold = too weak to quantify, mostly under pKd 3.1 to 4

Binder | pKd
SVISRREWYV [NECTIN3, Q9NQS3] | 3.95
NRVDSKETEC [ADAM17, P78536] | 3.81

Each binder was assayed against T6, SYNJ2BP, P57105 (assay: holdup assay). Settings: plain residues with an end cap or a label only (N-terminal biotin on a linker: ado-ado).
Parameters: key: below the threshold = too weak to quantify, mostly under pKd 3.1 to 4

Binder | pKd
SVISRREWYV [NECTIN3, Q9NQS3] | 3.55
NRVDSKETEC [ADAM17, P78536] | 4.28

These binders were tested against T7, RAPGEF6, Q8TEU7 (assay: holdup assay). Settings: plain residues with an end cap or a label only (N-terminal biotin on a linker: ado-ado).
Parameters: key: below the threshold = too weak to quantify, mostly under pKd 3.1 to 4

Binder | pKd
SVISRREWYV [NECTIN3, Q9NQS3] | below the threshold
NRVDSKETEC [ADAM17, P78536] | below the threshold

What follows are binders tested against GORASP2, Q9H8Y8 (assay: holdup assay). Settings: plain residues with an end cap or a label only (N-terminal biotin on a linker: ado-ado).
Parameters: key: below the threshold = too weak to quantify, mostly under pKd 3.1 to 4

Binder | pKd
SVISRREWYV [NECTIN3, Q9NQS3] | 5.1
NRVDSKETEC [ADAM17, P78536] | below the threshold

Each binder was assayed against T8, PTPN13_1, Q12923 (assay: holdup assay). Settings: plain residues with an end cap or a label only (N-terminal biotin on a linker: ado-ado).
Parameters: key: below the threshold = too weak to quantify, mostly under pKd 3.1 to 4

Binder | pKd
SVISRREWYV [NECTIN3, Q9NQS3] | below the threshold
NRVDSKETEC [ADAM17, P78536] | below the threshold

The binders below were run against LNX1_3, Q8TBB1 (assay: holdup assay). Settings: plain residues with an end cap or a label only (N-terminal biotin on a linker: ado-ado).
Chain of LNX1_3, Q8TBB1 (Q8TBB1 500-596): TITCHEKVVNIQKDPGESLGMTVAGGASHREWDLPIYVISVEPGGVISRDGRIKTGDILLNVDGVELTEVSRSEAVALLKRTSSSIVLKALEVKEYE
Parameters: key: below the threshold = too weak to quantify, mostly under pKd 3.1 to 4

Binder | pKd
SVISRREWYV [NECTIN3, Q9NQS3] | 4.81
NRVDSKETEC [ADAM17, P78536] | below the threshold

These binders were tested against MAGI2_5, Q86UL8 (assay: holdup assay). Settings: plain residues with an end cap or a label only (N-terminal biotin on a linker: ado-ado).
Chain of MAGI2_5, Q86UL8 (Q86UL8 915-1017): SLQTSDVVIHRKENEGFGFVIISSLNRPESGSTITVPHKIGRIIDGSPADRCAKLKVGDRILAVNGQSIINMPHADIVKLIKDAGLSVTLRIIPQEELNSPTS
Parameters: key: below the threshold = too weak to quantify, mostly under pKd 3.1 to 4

Binder | pKd
SVISRREWYV [NECTIN3, Q9NQS3] | below the threshold
NRVDSKETEC [ADAM17, P78536] | 3.92

The binders below were run against FRMPD2_2, Q68DX3 (assay: holdup assay). Settings: plain residues with an end cap or a label only (N-terminal biotin on a linker: ado-ado).
Chain of FRMPD2_2, Q68DX3 (Q68DX3 944-1038): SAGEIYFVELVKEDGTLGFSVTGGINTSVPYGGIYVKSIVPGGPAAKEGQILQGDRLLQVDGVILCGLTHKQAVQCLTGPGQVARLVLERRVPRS
Parameters: key: below the threshold = too weak to quantify, mostly under pKd 3.1 to 4

Binder | pKd
SVISRREWYV [NECTIN3, Q9NQS3] | 4.14
NRVDSKETEC [ADAM17, P78536] | below the threshold

The binders below were run against T9, NHERF3_3, Q5T2W1 (assay: holdup assay). Settings: plain residues with an end cap or a label only (N-terminal biotin on a linker: ado-ado).
Parameters: key: below the threshold = too weak to quantify, mostly under pKd 3.1 to 4

Binder | pKd
SVISRREWYV [NECTIN3, Q9NQS3] | below the threshold
NRVDSKETEC [ADAM17, P78536] | below the threshold

The binders below were run against GRID2IP_1, A4D2P6 (assay: holdup assay). Settings: plain residues with an end cap or a label only (N-terminal biotin on a linker: ado-ado).
Chain of GRID2IP_1, A4D2P6 (A4D2P6 1-87): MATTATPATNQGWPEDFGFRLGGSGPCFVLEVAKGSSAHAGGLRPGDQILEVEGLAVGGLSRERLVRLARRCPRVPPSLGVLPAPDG
Parameters: key: below the threshold = too weak to quantify, mostly under pKd 3.1 to 4

Binder | pKd
SVISRREWYV [NECTIN3, Q9NQS3] | below the threshold
NRVDSKETEC [ADAM17, P78536] | below the threshold

These binders were tested against T10, DFNB31_3, Q9P202 (assay: holdup assay). Settings: plain residues with an end cap or a label only (N-terminal biotin on a linker: ado-ado).
Parameters: key: below the threshold = too weak to quantify, mostly under pKd 3.1 to 4

Binder | pKd
SVISRREWYV [NECTIN3, Q9NQS3] | 3.52
NRVDSKETEC [ADAM17, P78536] | 3.92

What follows are binders tested against FRMPD3, Q5JV73 (assay: holdup assay). Settings: plain residues with an end cap or a label only (N-terminal biotin on a linker: ado-ado).
Chain of FRMPD3, Q5JV73 (Q5JV73 12-100): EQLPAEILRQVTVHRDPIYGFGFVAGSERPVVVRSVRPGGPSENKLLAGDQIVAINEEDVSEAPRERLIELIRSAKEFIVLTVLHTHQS
Parameters: key: below the threshold = too weak to quantify, mostly under pKd 3.1 to 4

Binder | pKd
SVISRREWYV [NECTIN3, Q9NQS3] | 4.06
NRVDSKETEC [ADAM17, P78536] | below the threshold

Each binder was assayed against TJP1_3, Q07157 (assay: holdup assay). Settings: plain residues with an end cap or a label only (N-terminal biotin on a linker: ado-ado).
Chain of TJP1_3, Q07157 (Q07157 416-512): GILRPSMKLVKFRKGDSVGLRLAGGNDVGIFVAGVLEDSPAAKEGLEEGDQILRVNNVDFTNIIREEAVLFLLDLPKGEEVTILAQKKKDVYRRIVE
Parameters: key: below the threshold = too weak to quantify, mostly under pKd 3.1 to 4

Binder | pKd
SVISRREWYV [NECTIN3, Q9NQS3] | 3.67
NRVDSKETEC [ADAM17, P78536] | below the threshold

Each binder was assayed against T11, LIN7A, O14910 (assay: holdup assay). Settings: plain residues with an end cap or a label only (N-terminal biotin on a linker: ado-ado).
Parameters: key: below the threshold = too weak to quantify, mostly under pKd 3.1 to 4

Binder | pKd
SVISRREWYV [NECTIN3, Q9NQS3] | 3.58
NRVDSKETEC [ADAM17, P78536] | below the threshold

These binders were tested against T12, GRIP1_7, Q9Y3R0 (assay: holdup assay). Settings: plain residues with an end cap or a label only (N-terminal biotin on a linker: ado-ado).
Parameters: key: below the threshold = too weak to quantify, mostly under pKd 3.1 to 4

Binder | pKd
SVISRREWYV [NECTIN3, Q9NQS3] | 5.11
NRVDSKETEC [ADAM17, P78536] | below the threshold

These binders were tested against PICK1, Q9NRD5 (assay: holdup assay). Settings: plain residues with an end cap or a label only (N-terminal biotin on a linker: ado-ado).
Chain of PICK1, Q9NRD5 (Q9NRD5 17-115): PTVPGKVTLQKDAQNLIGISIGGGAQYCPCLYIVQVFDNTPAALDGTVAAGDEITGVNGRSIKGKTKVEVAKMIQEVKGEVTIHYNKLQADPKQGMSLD
Parameters: key: below the threshold = too weak to quantify, mostly under pKd 3.1 to 4

Binder | pKd
SVISRREWYV [NECTIN3, Q9NQS3] | below the threshold
NRVDSKETEC [ADAM17, P78536] | 4.08

The binders below were run against MAST2, Q6P0Q8 (assay: holdup assay). Settings: plain residues with an end cap or a label only (N-terminal biotin on a linker: ado-ado).
Chain of MAST2, Q6P0Q8 (Q6P0Q8 1099-1202): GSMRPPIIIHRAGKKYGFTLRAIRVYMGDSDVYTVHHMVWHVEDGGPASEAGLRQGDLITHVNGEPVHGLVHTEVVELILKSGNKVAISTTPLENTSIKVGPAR
Parameters: key: below the threshold = too weak to quantify, mostly under pKd 3.1 to 4

Binder | pKd
SVISRREWYV [NECTIN3, Q9NQS3] | 4.61
NRVDSKETEC [ADAM17, P78536] | 4.86

What follows are binders tested against T13, PDZD2_2, O15018 (assay: holdup assay). Settings: plain residues with an end cap or a label only (N-terminal biotin on a linker: ado-ado).
Parameters: key: below the threshold = too weak to quantify, mostly under pKd 3.1 to 4

Binder | pKd
SVISRREWYV [NECTIN3, Q9NQS3] | 5.08
NRVDSKETEC [ADAM17, P78536] | below the threshold

These binders were tested against AHNAK1, Q09666 (assay: holdup assay). Settings: plain residues with an end cap or a label only (N-terminal biotin on a linker: ado-ado).
Chain of AHNAK1, Q09666 (Q09666 4-100): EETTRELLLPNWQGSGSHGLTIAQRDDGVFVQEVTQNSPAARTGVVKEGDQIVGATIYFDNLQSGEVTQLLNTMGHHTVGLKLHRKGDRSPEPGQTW
Parameters: key: below the threshold = too weak to quantify, mostly under pKd 3.1 to 4

Binder | pKd
SVISRREWYV [NECTIN3, Q9NQS3] | below the threshold
NRVDSKETEC [ADAM17, P78536] | below the threshold
